According to PMC6221140:

What was measured:
Test in all cases: two-hybrid; BACTH in E. coli BTH101 (cya); full length proteins fused to the C-terminus of T18 (pUT18C) or T25 (pKT25) of CyaA; blue colonies on X-Gal/IPTG plates, 30°C, 24 h, and β-galactosidase activity of liquid cultures in Miller units; biological duplicate
[1] = molecular target: SpoIIIAH (Clostridium difficile)
[2] = molecular target: SpoIIQ (Clostridium difficile)
[3] = molecular target: SpoIIP H142R (Clostridium difficile)
[4] = molecular target: SpoIIM (Clostridium difficile)

Molecule | β-galactosidase activity [1] | β-galactosidase activity [2] | β-galactosidase activity [3] | β-galactosidase activity [4]
SpoIIQ (natural protein) | 701 Miller Units | 743 MU |  | 
SpoIID (natural protein) MKNPLVVLLGFVTCSVLVPSLITLVSYKNVELTEKPESPVSINKTIKKSDIEDKGNKEEKNTVNYETVNKKAPIINVYNHITGKTEKMDMENYLCGVLAGEMSSEFDIEALKAQSVAARTYVVYKQEHGKSSKHKNAVVCTDYKHCQEYKSYDTLKKLNGEEWIKNKYSKIQEAVRGTKGQIITYNDKAILPLYFSTSSGKTENSEEVFSAKYPYLKSVESPYDKYSPKFASTLKISNTDFVKSLRRAYSTIVIDVNNLSKQVSITKRSDAGTVEKIKLGNKELTGKDIRTVFKLNSANFDIKFGEGYIDFVVKGYGHGVGMSQWGAEGMAEEGYKYYDILSHYYTDTKIKDIY | 656 MU | 761 MU | 229 MU | 699 MU
